From patent US12485182B2, “Proteoglycan mimetics for enhanced wound healing, angiogenesis, and vascular repair” (The Regents of the University of California, priority 2018, dated 2025) come the findings set out here.

Series [1] has as its target T1, collagen I (Rattus norvegicus, UniProt P02454+P02466).
T1 construct: rat tail collagen I (Corning); purchased Corning; host or cells: rat tail (tissue-extracted)
Description: Surface binding of biotinylated molecules to collagen I (streptavidin-HRP). The settings on record: for collagen I binding after incubation (deterioration of binding activity over time): after 2 weeks in 1% BSA at room temperature. How it is done:
(§1) High-binding 96-well plates (Corning) were coated with 50 μg/mL rat tail collagen I (Corning) at 4° C. overnight or 2% reduced growth factor Matrigel (Corning #354230) in basal EBM media for 30 minutes at 37° C. and rinsed 3× with PBS before blocking non-specific binding with 1% Bovine Serum Albumin (BSA) for 1 hour at room temperature. For fibrinogen surfaces, a fibrinogen coating solution of ˜2.75 mg/mL fibrinogen (Sigma) and 5.5 μg/mL aprotinin (Sigma) was incubated at 4° C. overnight in high-binding plates. Biotinylated samples dissolved in 1% BSA were allowed to bind to the surface for 30 minutes at 37° C. on a plate shaker. After 3 washes with PBS, wells were incubated with 1:200 streptavidin-HRP in 1% BSA, rinsed 3× with PBS, developed with a 1:1 A to B color solution for 20 minutes, stopped with the addition 2N H2SO4, and read on a Spectramax M5 platereader for absorbance at 450 nm with 540 nm correction.
(§2) The ability of DS-SILY4 to bind to various protein surface coatings was investigated using streptavidin-HRP detection of bound biotinylated DS-SILY4 molecules. Here we studied collagen and fibrinogen binding properties of the proteoglycan mimics since this proposed therapy is designed to target angiogenic activity to the wound site by tethering to extracellular matrix. Using standard surface coating procedures for collagen (50 μg/mL) and matrigel (2%), ˜7.5 μg/cm^2 rat tail collagen I and ˜28 μg/cm^2 matrigel were allowed to bind to a high bind plate.

For series [2], the system named is matrigel (collagen IV/laminin). The series can be described thus: Surface binding of biotinylated molecules to matrigel (streptavidin-HRP). Particulars: for matrigel binding after incubation (deterioration of binding activity over time): after 2 weeks in 1% BSA at room temperature; for matrigel binding affinity (relative): comparison between molecules. How it is done:
as §1, §2

Series [3] deals with T2, fibrinogen (Homo sapiens, UniProt P02671+P02675+P02679).
T2 construct: purchased Sigma
T2 sequence (P02671 20-629 limits assumed): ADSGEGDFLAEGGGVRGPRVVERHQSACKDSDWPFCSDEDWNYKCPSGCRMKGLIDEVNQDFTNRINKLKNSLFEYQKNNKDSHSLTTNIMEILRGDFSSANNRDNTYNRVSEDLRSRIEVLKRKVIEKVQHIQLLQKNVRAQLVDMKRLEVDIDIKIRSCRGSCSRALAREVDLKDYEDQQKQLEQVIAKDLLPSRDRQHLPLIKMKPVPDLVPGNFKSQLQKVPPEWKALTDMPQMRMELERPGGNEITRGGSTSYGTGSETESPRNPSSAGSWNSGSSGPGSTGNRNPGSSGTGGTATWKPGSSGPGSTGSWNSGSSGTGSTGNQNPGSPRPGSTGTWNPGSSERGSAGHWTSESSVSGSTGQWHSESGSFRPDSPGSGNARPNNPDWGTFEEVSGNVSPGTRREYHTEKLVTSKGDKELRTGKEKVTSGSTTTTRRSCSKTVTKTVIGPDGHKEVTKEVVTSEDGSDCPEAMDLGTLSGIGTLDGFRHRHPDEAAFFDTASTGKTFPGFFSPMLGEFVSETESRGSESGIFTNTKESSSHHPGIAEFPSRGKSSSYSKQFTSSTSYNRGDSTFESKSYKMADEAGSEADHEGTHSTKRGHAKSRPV
T2 sequence (P02675 31-491): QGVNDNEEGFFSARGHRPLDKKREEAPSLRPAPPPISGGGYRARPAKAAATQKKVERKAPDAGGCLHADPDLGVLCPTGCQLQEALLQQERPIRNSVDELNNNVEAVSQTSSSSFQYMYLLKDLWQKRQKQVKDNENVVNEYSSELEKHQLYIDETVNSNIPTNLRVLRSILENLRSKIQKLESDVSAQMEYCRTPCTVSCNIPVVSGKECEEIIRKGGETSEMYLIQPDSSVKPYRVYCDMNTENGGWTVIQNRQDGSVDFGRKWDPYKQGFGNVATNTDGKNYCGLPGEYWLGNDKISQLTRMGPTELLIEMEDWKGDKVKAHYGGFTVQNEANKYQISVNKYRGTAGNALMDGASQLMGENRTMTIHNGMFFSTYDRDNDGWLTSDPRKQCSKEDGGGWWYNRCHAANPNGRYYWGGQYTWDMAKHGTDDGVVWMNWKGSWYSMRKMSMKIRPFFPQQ
T2 sequence (P02679 27-433 limits assumed): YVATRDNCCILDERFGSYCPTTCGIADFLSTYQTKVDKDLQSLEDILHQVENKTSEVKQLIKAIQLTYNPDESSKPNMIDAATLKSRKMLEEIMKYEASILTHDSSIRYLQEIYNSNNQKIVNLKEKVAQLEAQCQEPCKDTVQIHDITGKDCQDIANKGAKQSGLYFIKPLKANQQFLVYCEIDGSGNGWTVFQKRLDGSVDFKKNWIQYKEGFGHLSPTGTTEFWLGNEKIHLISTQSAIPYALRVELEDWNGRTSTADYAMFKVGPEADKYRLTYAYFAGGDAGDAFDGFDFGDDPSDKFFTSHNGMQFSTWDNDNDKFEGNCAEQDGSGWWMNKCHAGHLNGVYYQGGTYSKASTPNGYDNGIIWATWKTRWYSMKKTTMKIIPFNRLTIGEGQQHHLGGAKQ
The series can be described thus: Surface binding of biotinylated molecules to fibrinogen (streptavidin-HRP). Particulars: biotinylated molecule, absorbance. On the procedure: as §1
The ability of DS-SILY4 to bind to various protein surface coatings was investigated using streptavidin-HRP detection of bound biotinylated DS-SILY4 molecules. Here we studied collagen and fibrinogen binding properties of the proteoglycan mimics since this proposed therapy is designed to target angiogenic activity to the wound site by tethering to extracellular matrix. […]

Series [4] relates to HMVEC. Description: HMVEC attachment to surface-bound molecules (alamarBlue). It counts as cell-based, human. The settings on record: low cell densities, both 1 μM and 10 μM surface treatments. How it is done: (§3) 50 μL, treatments dissolved in 1% BSA in PBS were added to a Biocoat Collagen I 96-well plate (Corning) and incubated for 30 minutes at 37° C. before washing 3 times with PBS to remove unbound treatment. […] To evaluate initial attachment, media was aspirated 5-8 hours after seeding and exchanged with alamarBlue® cell viability reagent (1:10, 110 μL/well, Molecular Probes) and incubated for 2.5 hours at 37° C. according to the manufacturers' protocol. 100 μL from each well was pipetted into a new plate and assayed for fluorescence at 560 nm excitation and 590 nm emission. Remaining reagent was aspirated and replaced with fresh media and the alamarBlue® viability assay was performed every 2 days thereafter for 1 week. To control for initial differences in HMVEC attachment, proliferation data is presented as the alamarBlue® fluorescence signal normalized to the signal at 8 hours.
Background: Alamar Blue is a resazurin reagent that responds to reducing activity.

For series [5], the system named is HMVEC. Description: HMVEC proliferation in response to surface-bound molecules (alamarBlue). Format: cell-based, human. How it is done:
as §3
Both soluble and bound forms of molecules would be present in a dynamic equilibrium in this initial experimental design and the two forms may produce differing effects, and thus we sought to investigate the effects of bound molecules alone. Furthermore, the bioactivity of a collagen-bound form would more directly reflect the application of a targeted pro-angiogenic therapy in a chronic wound. […]

In series [6] the test system is chick chorioallantoic membrane. The series can be described thus: Ex ovo CAM assay, vascular invasion into collagen gels. It counts as in vivo. Particulars: both 10 μM and 20 μM embedded gels, vs blank controls. How it is done: For experiments studying vascular invasion into collagen gels, 30 μL collagen I gels with an embedded 3 mm×3 mm nylon mesh (Fisher) were used. 4-5 gels were placed on each CAM, with 2-3 treatment gels of the same type and 2 blank gels as internal controls to correct for embryo variability. In some embryos, the nylon meshes were dyed to improve visualization of the mesh and vessels growing into the gel. Large (4 cm×10 cm) nylon meshes were dyed by reacting in 226 mL of a 77 mM acetic acid (Sigma) solution with 10 drops of green food coloring (McCormick) or 250 μL of 3 mg/mL Evans blue (Alfa Aesar) at 121° C. for 15 minutes in an autoclave, and then cut to 3 mm×3 mm squares for embedding. Gels were imaged daily through a Dino-Eye AM7025X camera installed on a stereomicroscope; for images more than 2 days after gel implantation, 0.25 mL PBS was pipetted on top of gels to help visualize vessels. […]
In an attempt to better visualize new vasculature invading the implanted collagen gels, we injected ˜100 μL 1 mg/mL high molecular weight fluorescent dextran (70 kDa RITC-dextran) into the CAM vessels 7 days after transplantation, cut out integrated collagen gels and surrounding membrane, and imaged with fluorescence microscopy. […]

Series [7] concerns THP-1 monocytes. Description: Attachment of THP-1 monocytes to peptide-treated surfaces. The settings on record: biotin-peptide on Avidin-coated wells. Format: cell-based. From the text:
(§4) FIG. 33. Attachment of cells and platelets to LXW7 and GRGD (SEQ ID NO: 2) treated surfaces. (A) Images of attached HCAECs (left panels), THP-1 monocytes (middle panels) and platelets (right panels) on surfaces treated by D-Biotin (a-c) (control), LXW7 (d-f) or GRGD (SEQ ID NO: 2) (g-i). Scale bars in a, b, d, e, g and h are 50 μm. Scale bars in c, f and i are 20 μm. (B) The number of cells or platelets attached on different treated surfaces were quantified and statistical analyses were performed. Data were expressed as mean±standard deviation: **p<0.01 (n=4).
(§5) Using primary artery-derived ECs and blood-derived EPCs as living probes to screen One-Bead-One-Compound (OBOC) combinatorial peptide libraries, several high-affinity binding ligands against the αvβ3 integrin on the surface of EPCs/ECs were identified. […] The LXW7 peptide, when grafted to surfaces, supports adhesion and spreading of EPCs and human coronary ECs, but not platelets or monocytes. […] After washing with PBS and blocking with 1% BSA wells were ready for cell attachment with 5×10^4 HCAECs or THP-1 monocytes suspended in the respective maintenance medium, or freshly isolated platelets at a density of 5×10^7 platelets/cm^2 incubated for 16 h at 37° C., 5% CO2. […] Quantification of images was performed using the Image J software (NIH).

Series [8] has as its system platelets. The series can be described thus: Attachment of platelets to peptide-treated surfaces. Format: cell-based. The settings on record: biotin-peptide on Avidin-coated wells.
Description: as §4, §5

Non-standard residues stand in square brackets, D forms with d. No end group written: not given here. AEEA = NCCOCCOCC(=O)O

T1 sequence (P02454 152-1207 limits assumed): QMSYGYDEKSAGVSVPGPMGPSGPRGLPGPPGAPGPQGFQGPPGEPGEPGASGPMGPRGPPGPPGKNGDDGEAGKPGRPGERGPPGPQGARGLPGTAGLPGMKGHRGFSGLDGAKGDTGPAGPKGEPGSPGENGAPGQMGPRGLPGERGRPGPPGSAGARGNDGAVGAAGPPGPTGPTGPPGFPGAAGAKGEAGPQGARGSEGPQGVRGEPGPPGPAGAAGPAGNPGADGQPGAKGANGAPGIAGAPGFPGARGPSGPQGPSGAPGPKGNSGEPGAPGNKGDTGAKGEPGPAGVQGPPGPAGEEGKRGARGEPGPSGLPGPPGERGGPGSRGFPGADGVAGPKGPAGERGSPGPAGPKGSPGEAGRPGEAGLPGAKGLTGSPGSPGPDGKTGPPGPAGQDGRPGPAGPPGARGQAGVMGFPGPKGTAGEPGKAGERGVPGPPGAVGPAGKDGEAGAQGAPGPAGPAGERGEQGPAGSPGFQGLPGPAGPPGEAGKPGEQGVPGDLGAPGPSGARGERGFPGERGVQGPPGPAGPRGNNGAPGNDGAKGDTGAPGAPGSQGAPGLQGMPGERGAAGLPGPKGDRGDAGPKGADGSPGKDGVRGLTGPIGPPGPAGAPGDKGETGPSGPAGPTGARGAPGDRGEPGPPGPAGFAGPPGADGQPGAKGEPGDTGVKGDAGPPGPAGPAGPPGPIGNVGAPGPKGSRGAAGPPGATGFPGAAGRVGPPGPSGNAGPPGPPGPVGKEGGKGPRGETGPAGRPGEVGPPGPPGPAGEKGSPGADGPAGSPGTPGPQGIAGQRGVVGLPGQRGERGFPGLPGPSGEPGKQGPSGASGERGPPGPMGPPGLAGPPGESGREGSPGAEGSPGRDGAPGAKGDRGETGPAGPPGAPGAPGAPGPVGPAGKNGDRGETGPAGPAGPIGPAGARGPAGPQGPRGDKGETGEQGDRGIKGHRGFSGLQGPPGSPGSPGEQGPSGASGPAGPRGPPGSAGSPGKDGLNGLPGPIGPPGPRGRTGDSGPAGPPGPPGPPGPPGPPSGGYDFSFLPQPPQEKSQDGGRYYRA
T1 sequence (P02466 86-1125 limits assumed): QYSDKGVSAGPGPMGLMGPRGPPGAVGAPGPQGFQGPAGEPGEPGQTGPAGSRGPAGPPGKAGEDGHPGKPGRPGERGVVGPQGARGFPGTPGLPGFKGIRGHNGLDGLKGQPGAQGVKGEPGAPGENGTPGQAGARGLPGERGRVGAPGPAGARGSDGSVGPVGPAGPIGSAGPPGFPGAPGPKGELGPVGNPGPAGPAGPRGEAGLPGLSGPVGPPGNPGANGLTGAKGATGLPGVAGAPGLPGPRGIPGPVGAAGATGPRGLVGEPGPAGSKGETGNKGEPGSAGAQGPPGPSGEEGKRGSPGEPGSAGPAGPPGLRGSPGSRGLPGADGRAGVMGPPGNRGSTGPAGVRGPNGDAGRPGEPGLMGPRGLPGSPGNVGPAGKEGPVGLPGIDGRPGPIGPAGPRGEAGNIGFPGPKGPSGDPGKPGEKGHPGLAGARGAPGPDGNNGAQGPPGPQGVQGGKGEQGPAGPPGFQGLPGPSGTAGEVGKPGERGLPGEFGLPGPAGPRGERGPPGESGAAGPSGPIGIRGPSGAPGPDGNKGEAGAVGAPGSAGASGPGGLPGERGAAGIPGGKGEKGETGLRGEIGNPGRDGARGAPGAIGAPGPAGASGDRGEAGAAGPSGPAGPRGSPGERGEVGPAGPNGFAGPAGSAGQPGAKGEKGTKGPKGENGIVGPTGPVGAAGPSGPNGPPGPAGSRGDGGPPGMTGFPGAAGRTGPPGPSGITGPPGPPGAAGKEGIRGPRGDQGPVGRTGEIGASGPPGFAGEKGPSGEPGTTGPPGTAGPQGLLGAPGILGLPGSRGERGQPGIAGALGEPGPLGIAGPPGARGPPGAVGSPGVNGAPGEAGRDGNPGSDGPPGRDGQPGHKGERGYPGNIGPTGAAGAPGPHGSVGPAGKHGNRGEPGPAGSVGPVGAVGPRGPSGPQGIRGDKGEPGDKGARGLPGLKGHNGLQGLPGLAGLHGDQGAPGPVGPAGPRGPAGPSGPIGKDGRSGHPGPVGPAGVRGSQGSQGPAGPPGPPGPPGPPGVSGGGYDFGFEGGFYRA

For the substance “DS-SILY4: decorin mimic composed of a dermatan sulfate backbone and 4 SILY substitutions per DS (RRANAALKAGELYKSILYGSG; also: conjugated to dermatan sulfate, 4 SILY per DS, attachment not given here)”, the “collagen I binding after incubation (deterioration of binding activity over time)” value in series [1] is recorded as “this shift was also observed”. The “binding capacity to collagen I” value in series [1] (biotinylated molecule, absorbance) is reported as 1.6 AU. Also, the “matrigel binding after incubation (deterioration of binding activity over time)” value in series [2] is “increased matrigel binding capacity after the 2 week incubation”. The “binding capacity to collagen IV/laminin” value in series [2] (biotinylated molecule, matrigel coating, absorbance) is reported as 1.1 AU. In addition, the “binding capacity to fibrinogen” value in series [3] is listed as 0.30 AU. Further, the “decrease in HMVEC attachment compared to a BSA blocked collagen surface” value in series [4] was 7%. The “endothelial proliferation vs untreated collagen” value was “only statistically significant over no treatment when compared in media lacking VEGF” in series [5] (1 μM surface treatment); “significantly improved proliferation in media with and without VEGF” in series [5] (10 μM surface treatment). Moreover, the “gel vascularity / vascularized gel area” value in series [6] is reported as “very slight increase in gel vascularity that was not statistically significant over the blank controls”.

As for “DS-(peg2V)2: dermatan sulfate with 2 peg2V peptides per DS (KLTWQELYQLKYKGI[AEEA][AEEA]GSG; also: conjugated to dermatan sulfate, 2 peg2V per DS, attachment not given here)”, in series [1] (comparison between molecules), the “collagen I affinity (relative)” value is listed as “higher affinity for collagen I than DS-SILY4” and the “collagen I binding capacity (relative)” value is reported as “highest collagen I binding capacity of all the molecules studied”. For the same substance, in series [2], the “matrigel binding affinity (relative)” value is reported as “similar”.

Consider “(peg2V)2-DS-SILY4: pro-angiogenic decorin mimic, 2 peg2V and 4 SILY per DS (peptide 1 KLTWQELYQLKYKGI[AEEA][AEEA]GSG; peptide 2 RRANAALKAGELYKSILYGSG; also: conjugated to dermatan sulfate: 2 peg2V and 4 SILY per DS, attachment not given here)”, for which the “collagen I binding after incubation (deterioration of binding activity over time)” value in series [1] was “higher concentrations are needed to achieve the same binding”. The “collagen I affinity (relative)” value in series [1] (comparison between molecules) was “highest collagen I and matrigel affinities”. In series [2], the “matrigel binding after incubation (deterioration of binding activity over time)” value is listed as “higher concentrations are needed to achieve the same binding”; the “matrigel binding affinity (relative)” value is “highest collagen I and matrigel affinities”.

Consider GRGD [RGD peptide, reference compound], for which the “monocyte binding to treated surface” value in series [7] was “generally supported monocyte and platelet binding”. In addition, the “platelet binding to treated surface” value in series [8] is “generally supported monocyte and platelet binding”.
